Measured values reported in patent publication US20180155451A1 (published 2018).

Experiments:
FcγRIIa R [1] = target: T1, FcγRIIa R (human, UniProt P12318 34-217); test: He/Con_2aR divided by He/Con_2b (FcγRIIa R over FcγRIIb); SPR (Biacore)
T1 construct: extracellular domain; also called FcgRIIa R; FcγRIIa type R
T1 sequence (looked up): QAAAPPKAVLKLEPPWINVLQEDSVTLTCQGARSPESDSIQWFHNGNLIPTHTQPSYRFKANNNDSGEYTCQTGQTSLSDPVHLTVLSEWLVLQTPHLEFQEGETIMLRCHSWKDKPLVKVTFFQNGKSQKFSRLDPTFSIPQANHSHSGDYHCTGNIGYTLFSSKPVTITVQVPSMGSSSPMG

FcγRIIb = target: T2, FcγRIIb (human, UniProt P31994 43-217); test: SPR (Biacore), captured antibody, FcγR analyte; binding relative to GpH7-A5/GpH7-B3/GpL16-k0 = 100
T2 construct: extracellular domain; also called FcgRIIb
T2 sequence (looked up): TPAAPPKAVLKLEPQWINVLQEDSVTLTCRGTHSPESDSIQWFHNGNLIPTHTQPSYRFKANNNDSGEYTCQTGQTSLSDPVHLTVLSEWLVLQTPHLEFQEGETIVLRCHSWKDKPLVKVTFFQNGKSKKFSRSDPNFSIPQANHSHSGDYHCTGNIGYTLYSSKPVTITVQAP

FcγRIIa R [2] = target: T1, FcγRIIa R; test: as above
FcγRIIa R [3] = target: T3, FcγRIIa R (human, UniProt P12318 34-217); test: SPR (Biacore), antibody captured via antigen peptide, FcγRIIa R as analyte; homodimerized antibody
T3 construct: extracellular domain; Soluble extracellular domain with C-terminal His tag, expressed in FreeStyle293 cells; also called FcgRIIa R; FcγRIIa type R; not shown: His tag attached to the C terminus
T3 sequence (looked up): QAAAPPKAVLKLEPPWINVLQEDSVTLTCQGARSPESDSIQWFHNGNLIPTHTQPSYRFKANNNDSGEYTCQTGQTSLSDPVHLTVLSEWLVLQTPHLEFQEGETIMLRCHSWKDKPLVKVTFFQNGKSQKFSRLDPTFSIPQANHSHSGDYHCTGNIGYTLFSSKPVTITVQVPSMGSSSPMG
Description: Analysis of interaction between objective antibody and the FcγR was carried out using Biacore T100 (GE Healthcare). HBS-EP+ (GE Healthcare) was used as the running buffer, and the measurement temperature was set to 25° C. Chips produced by immobilizing the antigen peptide by the amine coupling method to a Series S Sencor Chip CM5 (GE Healthcare), or alternatively, chips produced by allowing preliminarily biotinylated antigen peptides to interact with and immobilize onto a Series S Sensor Chip SA (certified) (GE Healthcare) were used. Antibodies of interest were captured onto an antigen peptide-immobilized chip, and allowed to interact to each FcγR diluted with running buffer. To regenerate and repeatedly use the chip, the antibodies captured on the chip were washed off by reacting 10 mM glycine-HCl, pH 1.5.

Row | Binder | IIaR/IIb (He_2aR/2b) (FcγRIIa R [1]) [ratio] | He/Con_2b (IIb binding) (FcγRIIb) [control=100] | He/Con_2aR (IIaR binding) (FcγRIIa R [2]) [control=100] | Ho/Con_2aR (FcγRIIa R [3])
1 | GpH7-A5/GpH7-B3 variant S298_19Q/GpL16-k0 (antibody, human IgG1, kappa, He Ab; IgG1; mutation in one H chain only) heavy 1: not shown heavy 2: not shown light: DIVMTQSPLSLPVTPGEPASISCQASESLVHSNRNTYLHWYLQKPGQSPQLLIYKVSNRFSGVPDRFSGSGSGTDFTLKISRVEAEDVGVYYCSQNTHVPPTFGQGTKVEIERTVAAPSVFIFPPSDEQLKSGTASVVCLLNNFYPREAKVQWKVDNALQSGNSQESVTEQDSKDSTYSLSSTLTLSKADYEKHKVYACEVTHQGLSSPVTKSFNRGEC | 1.3 | 73.3 | 95 | 
2 | GpH7-B3 variant T335_15Y/GpL16-k0 (antibody, human IgG1, kappa, homodimerized; mutation in both H chains; also called Ho Ab) heavy: not shown light: DIVMTQSPLSLPVTPGEPASISCQASESLVHSNRNTYLHWYLQKPGQSPQLLIYKVSNRFSGVPDRFSGSGSGTDFTLKISRVEAEDVGVYYCSQNTHVPPTFGQGTKVEIERTVAAPSVFIFPPSDEQLKSGTASVVCLLNNFYPREAKVQWKVDNALQSGNSQESVTEQDSKDSTYSLSSTLTLSKADYEKHKVYACEVTHQGLSSPVTKSFNRGEC |  |  |  | 107 % of control (GpH7-B3/GpL16-k0 = 100)
3 | GpH7-B3 variant H268_18N/GpL16-k0 (antibody, human IgG1, kappa, homodimerized; mutation in both H chains; also called Ho Ab) heavy: not shown light: DIVMTQSPLSLPVTPGEPASISCQASESLVHSNRNTYLHWYLQKPGQSPQLLIYKVSNRFSGVPDRFSGSGSGTDFTLKISRVEAEDVGVYYCSQNTHVPPTFGQGTKVEIERTVAAPSVFIFPPSDEQLKSGTASVVCLLNNFYPREAKVQWKVDNALQSGNSQESVTEQDSKDSTYSLSSTLTLSKADYEKHKVYACEVTHQGLSSPVTKSFNRGEC |  |  |  | 134 % of control (GpH7-B3/GpL16-k0 = 100)
4 | GpH7-B3 variant G236_09D/GpL16-k0 (antibody, human IgG1, kappa, homodimerized; mutation in both H chains; also called Ho Ab) heavy: not shown light: DIVMTQSPLSLPVTPGEPASISCQASESLVHSNRNTYLHWYLQKPGQSPQLLIYKVSNRFSGVPDRFSGSGSGTDFTLKISRVEAEDVGVYYCSQNTHVPPTFGQGTKVEIERTVAAPSVFIFPPSDEQLKSGTASVVCLLNNFYPREAKVQWKVDNALQSGNSQESVTEQDSKDSTYSLSSTLTLSKADYEKHKVYACEVTHQGLSSPVTKSFNRGEC |  |  |  | 107 % of control (GpH7-B3/GpL16-k0 = 100)
5 | GpH7-B3 variant I332_09D/GpL16-k0 (antibody, human IgG1, kappa, homodimerized; mutation in both H chains; also called Ho Ab) heavy: not shown light: DIVMTQSPLSLPVTPGEPASISCQASESLVHSNRNTYLHWYLQKPGQSPQLLIYKVSNRFSGVPDRFSGSGSGTDFTLKISRVEAEDVGVYYCSQNTHVPPTFGQGTKVEIERTVAAPSVFIFPPSDEQLKSGTASVVCLLNNFYPREAKVQWKVDNALQSGNSQESVTEQDSKDSTYSLSSTLTLSKADYEKHKVYACEVTHQGLSSPVTKSFNRGEC |  |  |  | 127 % of control (GpH7-B3/GpL16-k0 = 100)
6 | GpH7-B3 variant H268_09D/GpL16-k0 (antibody, human IgG1, kappa, homodimerized; mutation in both H chains; also called Ho Ab) heavy: not shown light: DIVMTQSPLSLPVTPGEPASISCQASESLVHSNRNTYLHWYLQKPGQSPQLLIYKVSNRFSGVPDRFSGSGSGTDFTLKISRVEAEDVGVYYCSQNTHVPPTFGQGTKVEIERTVAAPSVFIFPPSDEQLKSGTASVVCLLNNFYPREAKVQWKVDNALQSGNSQESVTEQDSKDSTYSLSSTLTLSKADYEKHKVYACEVTHQGLSSPVTKSFNRGEC |  |  |  | 157 % of control (GpH7-B3/GpL16-k0 = 100)
7 | GpH7-A5/GpH7-B3 variant S298_20W/GpL16-k0 (antibody, human IgG1, kappa, He Ab; IgG1; mutation in one H chain only) heavy 1: not shown heavy 2: not shown light: DIVMTQSPLSLPVTPGEPASISCQASESLVHSNRNTYLHWYLQKPGQSPQLLIYKVSNRFSGVPDRFSGSGSGTDFTLKISRVEAEDVGVYYCSQNTHVPPTFGQGTKVEIERTVAAPSVFIFPPSDEQLKSGTASVVCLLNNFYPREAKVQWKVDNALQSGNSQESVTEQDSKDSTYSLSSTLTLSKADYEKHKVYACEVTHQGLSSPVTKSFNRGEC | 1.35 | 41.1 | 55.4 | 
8 | GpH7-A5/GpH7-B3 variant Y300_18N/GpL16-k0 (antibody, human IgG1, kappa, He Ab; IgG1; mutation in one H chain only) heavy 1: not shown heavy 2: not shown light: DIVMTQSPLSLPVTPGEPASISCQASESLVHSNRNTYLHWYLQKPGQSPQLLIYKVSNRFSGVPDRFSGSGSGTDFTLKISRVEAEDVGVYYCSQNTHVPPTFGQGTKVEIERTVAAPSVFIFPPSDEQLKSGTASVVCLLNNFYPREAKVQWKVDNALQSGNSQESVTEQDSKDSTYSLSSTLTLSKADYEKHKVYACEVTHQGLSSPVTKSFNRGEC | 1.21 | 82.7 | 100 | 
9 | GpH7-B3 variant H268_13S/GpL16-k0 (antibody, human IgG1, kappa, homodimerized; mutation in both H chains; also called Ho Ab) heavy: not shown light: DIVMTQSPLSLPVTPGEPASISCQASESLVHSNRNTYLHWYLQKPGQSPQLLIYKVSNRFSGVPDRFSGSGSGTDFTLKISRVEAEDVGVYYCSQNTHVPPTFGQGTKVEIERTVAAPSVFIFPPSDEQLKSGTASVVCLLNNFYPREAKVQWKVDNALQSGNSQESVTEQDSKDSTYSLSSTLTLSKADYEKHKVYACEVTHQGLSSPVTKSFNRGEC |  |  |  | 135 % of control (GpH7-B3/GpL16-k0 = 100)
10 | GpH7-B3 variant G236_10E/GpL16-k0 (antibody, human IgG1, kappa, homodimerized; mutation in both H chains; also called Ho Ab) heavy: not shown light: DIVMTQSPLSLPVTPGEPASISCQASESLVHSNRNTYLHWYLQKPGQSPQLLIYKVSNRFSGVPDRFSGSGSGTDFTLKISRVEAEDVGVYYCSQNTHVPPTFGQGTKVEIERTVAAPSVFIFPPSDEQLKSGTASVVCLLNNFYPREAKVQWKVDNALQSGNSQESVTEQDSKDSTYSLSSTLTLSKADYEKHKVYACEVTHQGLSSPVTKSFNRGEC |  |  |  | 140 % of control (GpH7-B3/GpL16-k0 = 100)
11 | GpH7-B3 variant I332_04F/GpL16-k0 (antibody, human IgG1, kappa, homodimerized; mutation in both H chains; also called Ho Ab) heavy: not shown light: DIVMTQSPLSLPVTPGEPASISCQASESLVHSNRNTYLHWYLQKPGQSPQLLIYKVSNRFSGVPDRFSGSGSGTDFTLKISRVEAEDVGVYYCSQNTHVPPTFGQGTKVEIERTVAAPSVFIFPPSDEQLKSGTASVVCLLNNFYPREAKVQWKVDNALQSGNSQESVTEQDSKDSTYSLSSTLTLSKADYEKHKVYACEVTHQGLSSPVTKSFNRGEC |  |  |  | 109 % of control (GpH7-B3/GpL16-k0 = 100)
12 | GpH7-B3 variant I332_10E/GpL16-k0 (antibody, human IgG1, kappa, homodimerized; mutation in both H chains; also called Ho Ab; GpH7-B3-22-10E/GpL16-k0) heavy: not shown light: DIVMTQSPLSLPVTPGEPASISCQASESLVHSNRNTYLHWYLQKPGQSPQLLIYKVSNRFSGVPDRFSGSGSGTDFTLKISRVEAEDVGVYYCSQNTHVPPTFGQGTKVEIERTVAAPSVFIFPPSDEQLKSGTASVVCLLNNFYPREAKVQWKVDNALQSGNSQESVTEQDSKDSTYSLSSTLTLSKADYEKHKVYACEVTHQGLSSPVTKSFNRGEC |  |  |  | 123 % of control (GpH7-B3/GpL16-k0 = 100)
13 | GpH7-A5/GpH7-B3 variant Y300_05P/GpL16-k0 (antibody, human IgG1, kappa, He Ab; IgG1; mutation in one H chain only) heavy 1: not shown heavy 2: not shown light: DIVMTQSPLSLPVTPGEPASISCQASESLVHSNRNTYLHWYLQKPGQSPQLLIYKVSNRFSGVPDRFSGSGSGTDFTLKISRVEAEDVGVYYCSQNTHVPPTFGQGTKVEIERTVAAPSVFIFPPSDEQLKSGTASVVCLLNNFYPREAKVQWKVDNALQSGNSQESVTEQDSKDSTYSLSSTLTLSKADYEKHKVYACEVTHQGLSSPVTKSFNRGEC | 1.47 | 7.3 | 10.8 | 
14 | GpH7-B3 variant H268_10E/GpL16-k0 (antibody, human IgG1, kappa, homodimerized; mutation in both H chains; also called Ho Ab) heavy: not shown light: DIVMTQSPLSLPVTPGEPASISCQASESLVHSNRNTYLHWYLQKPGQSPQLLIYKVSNRFSGVPDRFSGSGSGTDFTLKISRVEAEDVGVYYCSQNTHVPPTFGQGTKVEIERTVAAPSVFIFPPSDEQLKSGTASVVCLLNNFYPREAKVQWKVDNALQSGNSQESVTEQDSKDSTYSLSSTLTLSKADYEKHKVYACEVTHQGLSSPVTKSFNRGEC |  |  |  | 154 % of control (GpH7-B3/GpL16-k0 = 100)
15 | GpH7-A5/GpH7-B3 variant Y300_12R/GpL16-k0 (antibody, human IgG1, kappa, He Ab; IgG1; mutation in one H chain only) heavy 1: not shown heavy 2: not shown light: DIVMTQSPLSLPVTPGEPASISCQASESLVHSNRNTYLHWYLQKPGQSPQLLIYKVSNRFSGVPDRFSGSGSGTDFTLKISRVEAEDVGVYYCSQNTHVPPTFGQGTKVEIERTVAAPSVFIFPPSDEQLKSGTASVVCLLNNFYPREAKVQWKVDNALQSGNSQESVTEQDSKDSTYSLSSTLTLSKADYEKHKVYACEVTHQGLSSPVTKSFNRGEC | 1.34 | 41.2 | 55.1 | 
